Our source for the amyloid nucleation score values is the supplement of paper PMC12042874.

± gives the uncertainty stated by the source.

This series in a line: amyloid nucleation score (Sup35N fusion, yeast selection) (log enrichment); library NNK3; higher = more nucleation; inactive = no reads after selection. A digest of the protocol: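 The nucleation score is a DiMSum log enrichment of output over input reads, centred on the mode score of non-aggregating sequences. Sequences under 100 input reads were excluded, and reads came from Illumina sequencing of plasmid inserts. Psi-negative yeast expressing Sup35N fused to peptides of 20 random codons were induced with 100 μM copper sulfate for 24 hours and grown 7 days at 30°C on medium lacking adenine and uracil. Random libraries had three technical output replicates.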
With MDDFLYAVPMWELWKVLRDE, the amyloid nucleation score entry is “inactive”.
In the case of MDITWIKVVHNIHQTVRSKF, the amyloid nucleation score came to 1 ± 0.22.
For the substance MDRIYLHISVEVSASFMSDA, the amyloid nucleation score result is “inactive”.
Consider MEGFSMIIRDAWKFTCVVEW, for which the amyloid nucleation score entry is “inactive”.
The substance MESDCQRDHNFIRIKIKIGE registered an amyloid nucleation score of 1.65 ± 0.09.
With MEVKNSRLDSVAKYQSISFL the entry was “inactive”; with MFLGNVMTILIEMGFQKALT, 0.93 ± 0.17.
The entry for MFLLMNKV is “inactive”; for MFLQSGDFPM it is “inactive”; for MFRHVWVTNEVLSCGYIVTG it is “inactive”.
In the case of MFRVMSSVKLLS, the amyloid nucleation score was -0.754 ± 0.96.
Take MFSLNVYMGDTIVVHQGFTD: the amyloid nucleation score came to 2.77 ± 0.058.
With MFSPQSNRFSSFGNNSITGH, the amyloid nucleation score result was “inactive”.
In the case of MFYVVLSYK, the amyloid nucleation score was found to be 0.071 ± 0.38.
For MGIQKTDRWRLWYYYWMREN, the amyloid nucleation score entry was “inactive”.
Consider MGKETRVA, for which the amyloid nucleation score entry is “inactive”.
The entry for MGKTRLADLRVYRTVWLFSR is “inactive”.
The entry for MGNRNDSNLTRCWESTLVVK is “inactive”; for MGQAEGFLNGSSEQVEPTFA it is “inactive”.
In the case of MGVICWYLRACNPQPGSNCK, the amyloid nucleation score entry was “inactive”.
On to MGWALIGSQSPYVCHNMFVR, for which the amyloid nucleation score entry is “inactive”.
The entry for MHAMNVMAGVRLALVYVRSN is “inactive”.
In the case of MHANLLGVQSVLLDRVEVMW, the amyloid nucleation score result is “inactive”.
MHLEYGVFIDARATYML registered an amyloid nucleation score of 1.49 ± 0.12.
With MHLVYQDILSYIAWSRVPLR the entry was “inactive”; with MIHAFGFLMMCLVQSYLELF, “inactive”; with MILLLGLDRKHSSGESKALI, “inactive”.
With MILNINVMYYFMYEGKIVMP the figure was 2.7 ± 0.049; with MINCISNMVISIGSKRTYPS, 2.5 ± 0.068.
The figure for MIRYSVQ is 0.131 ± 0.24.
For the substance MKFFVNLAYIFFRFFSLRLL, the amyloid nucleation score result was “inactive”.
In turn, MKFRLTSSRQSDEAHFMWLT displayed an amyloid nucleation score of 1.28 ± 0.085.
Take MKFVPHYEGVYCL: the amyloid nucleation score result was “inactive”.
As to MKGQLARSSDLSRLDVNCMG, the amyloid nucleation score result was “inactive”.
As to MKTSNYMVRQCAGIPASTNR, the amyloid nucleation score entry was “inactive”.
For the substance MLARHCQQGGRDHPWLGSVL, the amyloid nucleation score entry is “inactive”.
The figure for MLLIVTSCYISAPNAVSPGW is -0.563 ± 0.84; for MLNAIGCLSWSQFPESLLLG it is “inactive”.
With MLNSLFAMNTILKW the figure was 0.876 ± 0.083; with MLVATL, “inactive”.
The entry for MLWCLSVSIDFYGGDNRMLT is “inactive”.
Turning to MLYFALNLC, the amyloid nucleation score result was “inactive”.
The figure for MMADDVSLICGCGRQ is 1.01 ± 0.19.
The figure for MMELQVAQLHTEGDRLKSRR is -0.787 ± 2.4; for MMGTSWDWRYRYLRLRGEEC it is “inactive”; for MMMQLNGVHMV it is “inactive”.
With MMVIRQYFMVRVEPVHVSSG the entry was “inactive”.
MMVMWD: the amyloid nucleation score result was “inactive”.
MMWDL: the amyloid nucleation score entry is “inactive”.
With MNEGQSYYKVVITPELLAAR the figure was -0.545 ± 0.96.
As to MNFSEH, the amyloid nucleation score entry is “inactive”.
The entry for MNGNGRFLVERRMLGSKKSV is “inactive”.
For MNTVGLIDLHSGAPLSINRT, the amyloid nucleation score result was “inactive”.
The entry for MPMGGRYSAKAIVLVQKKDW is “inactive”; for MPRSCSDYACAV it is “inactive”; for MPYSFIMTVTYSLQYTQWSL it is -0.074 ± 0.51.
Consider MQYLIYPTWLVIELNC, for which the amyloid nucleation score came out at 0.684 ± 0.13.
With MRCGRIDGDFGFAPRLRGTM the figure was 0.902 ± 0.14.
In the case of MRGFFCRIH, the amyloid nucleation score entry is “inactive”.
MRLMVWESLR gave an amyloid nucleation score of 1.6 ± 0.097.
MRMNVTIRFVMFNTGLRMYG: the amyloid nucleation score result was “inactive”.
The entry for MRRGEDCVV is “inactive”; for MRRSMAVAMNRSVLYDEC it is 0.581 ± 0.16.
MRRVGIWYVRR: the amyloid nucleation score result was “inactive”.
For MRTMLVFVRGFKFFLPDLLI, the amyloid nucleation score result was “inactive”.
As to MRTNTPIFLVLGKIS, the amyloid nucleation score result is “inactive”.
In the case of MRVKGLIRWWETGCEKKSTA, the amyloid nucleation score result is “inactive”.
With MRYGKLDLSRVYLQCDRLGR the entry was “inactive”; with MRYINEKCVT, “inactive”; with MSEKASSEVKINRDAGLGAF, “inactive”.
The entry for MSFEYSPQGSILYGPSRNIY is “inactive”; for MSFMTDLNPTFLFMLIG it is “inactive”.
Turning to MSGSRWRSTNFTCNNLWFDR, the amyloid nucleation score was -1.07 ± 1.1.
For the substance MSGVDYLTRLFVYTNESDAV, the amyloid nucleation score result is “inactive”.
The entry for MSICFDPWTRPKCGVYCRCS is “inactive”.
With MSNMWKEYALALVVGLSFRL the entry was “inactive”.
As to MSRGGYWSKVR, the amyloid nucleation score entry is “inactive”.
In the case of MSSSSAFD, the amyloid nucleation score entry was “inactive”.
As for MSTVRHVRWRQGQGKMRGRK, the amyloid nucleation score result is “inactive”.
With MTAGEIDRLLYVS the entry was “inactive”.
With MTCSQSECARVIVSRCHVWP the entry was “inactive”.
Consider MTESNGGFPG, for which the amyloid nucleation score result is “inactive”.
The entry for MTSITVDYDNLDYRIAMITW is “inactive”.
The entry for MVCLDWVPSNVMTLGS is “inactive”; for MVCWANKHWYSSHLLYDSVY it is “inactive”; for MVGFLDTFSRIAVRCSIDRW it is -0.344 ± 1.
Take MVIAPGEKTNNLSSAHRWSN: the amyloid nucleation score entry was “inactive”.
Substance MVIGNVCFIIYGSFNEE had an amyloid nucleation score of 2.33 ± 0.089.
With MVLKLNESSMIFKDTTYP the entry was “inactive”; with MVLPLSYKQSCFQLCKFLDN, “inactive”; with MVMPGMFGSLRREWHSFFRM, “inactive”.
Take MVMQIYIDDRPSMKVLYSEM: the amyloid nucleation score turned out to be 0.485 ± 0.21.
With MVSNNGFIRSLVENPTPIQD the entry was “inactive”.
With MWCMGNSVGSVWSRCTYMRY the entry was “inactive”; with MWGVCSFFAFPHIIFM, 1.33 ± 0.11; with MWSHFFSQYSGWRFYTKSRF, “inactive”.
With MWVFKMRTGQYRASSRSLHR the figure was 0.175 ± 0.37.
